The chains are these.
B1: Zinc finger homeobox protein 3, residues 2147 to 2202; numbered along this chain, Q15911 (parent)
chain: RPRTRITDDQLRVLRQYFDINNSPSEEQIKEMADKSGLPQKVIKHWFRNTLFKERQ

± gives the uncertainty stated by the source.

Results on 47 variants are retold here after the Human Domainome abundance scans (Beltran et al. 2025).

This data set covers variants of B1. Put plainly: abundance fitness (aPCA) (normalised: wild type 0, dead -1); higher = more abundant; growth selection in yeast, the domain comes from the species named. The note with it: Homo sapiens.
For the variant RPRTRITDDQLRVLRQYFDINNSPSEEQIKEMADKSGLHQKVIKHWFRNTLFKERQ [P39H], the abundance fitness is -0.079 ± 0.18. For RPRTRITDDQLRVLRQYFDINNSPSEEQIKEMADKSGLRQKVIKHWFRNTLFKERQ [P39R], the abundance fitness was -0.156 ± 0.082. In the case of RPRTRITDDQLRVLRQYFDINNSPSEEQIKEMADKSGLPQAVIKHWFRNTLFKERQ [K41A] it was -0.056 ± 0.12; in that of RPRTRITDDQLRVLRQYFDINNSPSEEQIKEMADKSGLPQDVIKHWFRNTLFKERQ [K41D], -0.054 ± 0.19; in that of RPRTRITDDQLRVLRQYFDINNSPSEEQIKEMADKSGLPQCVIKHWFRNTLFKERQ [K41C], 0.126 ± 0.14. With RPRTRITDDQLRVLRQYFDINNSPSEEQIKEMADKSGLPQNVIKHWFRNTLFKERQ [K41N] the figure was -0.053 ± 0.16; with RPRTRITDDQLRVLRQYFDINNSPSEEQIKEMADKSGLPQEVIKHWFRNTLFKERQ [K41E], 0.01 ± 0.11; with RPRTRITDDQLRVLRQYFDINNSPSEEQIKEMADKSGLPQGVIKHWFRNTLFKERQ [K41G], 0.108 ± 0.079. In the case of RPRTRITDDQLRVLRQYFDINNSPSEEQIKEMADKSGLPQMVIKHWFRNTLFKERQ [K41M] it was -0.011 ± 0.13; in that of RPRTRITDDQLRVLRQYFDINNSPSEEQIKEMADKSGLPQIVIKHWFRNTLFKERQ [K41I], -0.022 ± 0.2; in that of RPRTRITDDQLRVLRQYFDINNSPSEEQIKEMADKSGLPQLVIKHWFRNTLFKERQ [K41L], -0.004 ± 0.094. As to RPRTRITDDQLRVLRQYFDINNSPSEEQIKEMADKSGLPQFVIKHWFRNTLFKERQ [K41F], the abundance fitness was -0.274 ± 0.25.

As to RPRTRITDDQLRVLRQYFDINNSPSEEQIKEMADKSGLPFKVIKHWFRNTLFKERQ [Q40F], the abundance fitness was -0.172 ± 0.23.

On to RPRTRITDDQLRVLRQYFDINNSPSEEQIKEMADKSGLPNKVIKHWFRNTLFKERQ [Q40N], for which the abundance fitness came out at 0.102 ± 0.31. With RPRTRITDDQLRVLRQYFDINNSPSEEQIKEMADKSGLPEKVIKHWFRNTLFKERQ [Q40E] the figure was 0.105 ± 0.13. With RPRTRITDDQLRVLRQYFDINNSPSEEQIKEMADKSGLPYKVIKHWFRNTLFKERQ [Q40Y], the abundance fitness worked out at 0.088 ± 0.32.

As to RPRTRITDDQLRVLRQYFDINNSPSEEQIKEMADKSGLPCKVIKHWFRNTLFKERQ [Q40C], the abundance fitness was -0.118 ± 0.11. In the case of RPRTRITDDQLRVLRQYFDINNSPSEEQIKEMADKSGLPVKVIKHWFRNTLFKERQ [Q40V] it was -0.046 ± 0.084. With RPRTRITDDQLRVLRQYFDINNSPSEEQIKEMADKSGLPHKVIKHWFRNTLFKERQ [Q40H] the figure was 0.025 ± 0.18. With RPRTRITDDQLRVLRQYFDINNSPSEEQIKEMADKSGLPIKVIKHWFRNTLFKERQ [Q40I] the figure was -0.162 ± 0.15. For the variant RPRTRITDDQLRVLRQYFDINNSPSEEQIKEMADKSGLPMKVIKHWFRNTLFKERQ [Q40M], the abundance fitness is -0.103 ± 0.11. With RPRTRITDDQLRVLRQYFDINNSPSEEQIKEMADKSGLPWKVIKHWFRNTLFKERQ [Q40W] the figure was -0.068 ± 0.092. In the case of RPRTRITDDQLRVLRQYFDINNSPSEEQIKEMADKSGLPGKVIKHWFRNTLFKERQ [Q40G] it was -0.073 ± 0.074; in that of RPRTRITDDQLRVLRQYFDINNSPSEEQIKEMADKSGLPLKVIKHWFRNTLFKERQ [Q40L], 0.072 ± 0.083. As to RPRTRITDDQLRVLRQYFDINNSPSEEQIKEMADKSGLPDKVIKHWFRNTLFKERQ [Q40D], the abundance fitness is -0.06 ± 0.19. In the case of RPRTRITDDQLRVLRQYFDINNSPSEEQIKEMADKSGLPTKVIKHWFRNTLFKERQ [Q40T] it was 0.054 ± 0.099. RPRTRITDDQLRVLRQYFDINNSPSEEQIKEMADKSGLPRKVIKHWFRNTLFKERQ [Q40R]: the abundance fitness turned out to be 0.022 ± 0.071. For the variant RPRTRITDDQLRVLRQYFDINNSPSEEQIKEMADKSGLPKKVIKHWFRNTLFKERQ [Q40K], the abundance fitness amounted to 0.193 ± 0.12.

As to RPRTRITDDQLRVLRQYFDINNSPSEEQIKEMADKSGLPSKVIKHWFRNTLFKERQ [Q40S], the abundance fitness stood at 0.014 ± 0.091.

As for RPRTRITDDQLRVLRQYFDINNSPSEEQIKEMADKSGLPPKVIKHWFRNTLFKERQ [Q40P], the abundance fitness came to 0.121 ± 0.1. Consider RPRTRITDDQLRVLRQYFDINNSPSEEQIKEMADKSGIPQKVIKHWFRNTLFKERQ [L38I], for which the abundance fitness is -0.124 ± 0.22. On to RPRTRITDDQLRVLRQYFDINNSPSEEQIKEMADKSGDPQKVIKHWFRNTLFKERQ [L38D], for which the abundance fitness is -1.02 ± 0.18. Turning to RPRTRITDDQLRVLRQYFDINNSPSEEQIKEMADKSGSPQKVIKHWFRNTLFKERQ [L38S], the abundance fitness was -0.712 ± 0.095.

For the variant RPRTRITDDQLRVLRQYFDINNSPSEEQIKEMADKSGPPQKVIKHWFRNTLFKERQ [L38P], the abundance fitness was -0.858 ± 0.13. With RPRTRITDDQLRVLRQYFDINNSPSEEQIKEMADKSGCPQKVIKHWFRNTLFKERQ [L38C] the figure was -0.143 ± 0.14.

Take RPRTRITDDQLRVLRQYFDINNSPSEEQIKEMADKSGQPQKVIKHWFRNTLFKERQ [L38Q]: the abundance fitness is -0.649 ± 0.13.

Consider RPRTRITDDQLRVLRQYFDINNSPSEEQIKEMADKSGMPQKVIKHWFRNTLFKERQ [L38M], for which the abundance fitness is -0.302 ± 0.11. Take RPRTRITDDQLRVLRQYFDINNSPSEEQIKEMADKSGGPQKVIKHWFRNTLFKERQ [L38G]: the abundance fitness is -0.857 ± 0.075.

With RPRTRITDDQLRVLRQYFDINNSPSEEQIKEMADKSGTPQKVIKHWFRNTLFKERQ [L38T], the abundance fitness was -0.449 ± 0.12. With RPRTRITDDQLRVLRQYFDINNSPSEEQIKEMADKSGNPQKVIKHWFRNTLFKERQ [L38N] the figure was -1.15 ± 0.28; with RPRTRITDDQLRVLRQYFDINNSPSEEQIKEMADKSGEPQKVIKHWFRNTLFKERQ [L38E], -0.706 ± 0.11.

Regarding RPRTRITDDQLRVLRQYFDINNSPSEEQIKEMADKSGRPQKVIKHWFRNTLFKERQ [L38R], the abundance fitness was -0.971 ± 0.077.

Consider RPRTRITDDQLRVLRQYFDINNSPSEEQIKEMADKSGKPQKVIKHWFRNTLFKERQ [L38K], for which the abundance fitness is -1.04 ± 0.15.

With RPRTRITDDQLRVLRQYFDINNSPSEEQIKEMADKSGFPQKVIKHWFRNTLFKERQ [L38F], the abundance fitness was -0.762 ± 0.18.

Consider RPRTRITDDQLRVLRQYFDINNSPSEEQIKEMADKSGYPQKVIKHWFRNTLFKERQ [L38Y], for which the abundance fitness is -1.05 ± 0.33. Take RPRTRITDDQLRVLRQYFDINNSPSEEQIKEMADKSGHPQKVIKHWFRNTLFKERQ [L38H]: the abundance fitness is -1.1 ± 0.38. With RPRTRITDDQLRVLRQYFDINNSPSEEQIKEMADKSGVPQKVIKHWFRNTLFKERQ [L38V] the figure was -0.008 ± 0.08.
